Measurements from patent US20210324359A1, “USE OF GRAM-NEGATIVE LYSIN-ANTIMICROBIAL PEPTIDE (AMP) POLYPEPTIDE CONSTRUCTS IN TREATING ENDOCARDITIS” (priority 2020, published 2021).
Where two headings read alike, the source gives them in different places.

Assays:
[1] = system: P. aeruginosa isolate CFS 1558 (PA20); format: in vivo; conditions: for Log10 CFU/g of vegetation: rabbit lung
Protocol: A rabbit pulmonary model was used to assess the efficacy of the GN370 lysin alone and in combination with an antibiotic (meropenem). Initially, rabbits were infected intratracheally with P. aeruginosa isolate CFS 1558 (PA20) (3×10^9 CFU). Treatment commenced 6 hours post-infection.

[2] = system: P. aeruginosa; experiment: MIC, modified CLSI broth microdilution in CAA medium without or with […] human serum (Table 4); format: cell-based, Pseudomonas aeruginosa; as to CAA/HuS MIC: CAA supplemented with 2.5% human serum
Text: 2015. […] Clinical and Laboratory Standards Institute, Wayne, Pa.

[3] = system: P. aeruginosa PA20; experiment: MIC of GN370 and meropenem against the infecting strain; format: cell-based, Pseudomonas aeruginosa
[4] = system: P. aeruginosa strain PA453; experiment: Time-kill assay of GN370 in animal blood (Table 34); format: cell-based, Pseudomonas aeruginosa; conditions: for Log10 CFU/mL of P. aeruginosa: limit of detection 1.6
Text: The results are shown below in Table 34, wherein survival is reported as Log10 CFU/mL and wherein the limit of detection was 1.6 Log10 CFU/mL.

B1: GN370: lysin-AMP construct: MIDR, FIRL and NPTH moieties N-terminal to GN202 lysin (SEQ ID NO: 44) (protein)
chain: MIDRFIRLNPTHGPRRPRRPGRRAPVRTSQRGIDLIKSFEGLRLSAYQDSVGVWTIGYGTTRGVTRYMTITVEQAERMLSNDIQRFEPELDRLAKVPLNQNQWDALMSFVYNLGAANLASSTLLDLLNKGDYQGAADQFPHWVNAGGKRLDGLVKRRAAERALFLEPLS
[1]; GN370 3 mg/kg
  Bacterial burden, Kidneys: 5.06 ± 1.05 log10 CFU/g
  Bacterial burden, Lung 1: 6.28 ± 1.12 log10 CFU/g
  Bacterial burden, Lung 2: 6.43 ± 1.01 log10 CFU/g
  Bacterial burden, Spleen: 5.23 ± 1.25 log10 CFU/g
  Log10 CFU/g of vegetation: 6.52 ± 1.01 Log10 CFU/g
[1]; GN370 10 mg/kg
  Bacterial burden, Kidneys: 3.46 ± 0.78 log10 CFU/g
  Bacterial burden, Lung 1: 6.63 ± 1.00 log10 CFU/g
  Bacterial burden, Lung 2: 5.53 ± 1.75 log10 CFU/g
  Bacterial burden, Spleen: 3.76 ± 0.44 log10 CFU/g
  Log10 CFU/g of vegetation: 6.25 ± 1.35 Log10 CFU/g
[1]; GN370 alone, increasing concentrations, compared to pretreatment control
  reduction in CFUs in the lungs: 4 log10
[1]; GN-370 (10 mg/kg) in addition to meropenem, compared to meropenem or GN-370 alone
  additional decrease of bacterial density in lung, kidney and spleen: 2 log10 CFU/g
[1]; agent alone, compared to the starting CFU and the vehicle control group
  decrease of mean bacterial density in lungs: about 2 log10 CFU/g
[1]; GN370 30 mg/kg
  Log10 CFU/g of vegetation: 7.88 ± 0.50 Log10 CFU/g
[1]; tested doses
  tolerability in infected rabbits: well tolerated at the tested doses
[1]; treated infected rabbits
  survival until the end of the study: all treated infected animals survived until the end of the study
[2]; CAA medium, no human serum
  CAA MIC: 16000 µg/mL
[2]; CAA supplemented with […] human serum
  CAA/HuS MIC: 4000 µg/mL
[3]
  MIC of P. aeruginosa PA20: 2 µg/mL
[3]; GN370 value in rabbit serum
  MIC against P. aeruginosa: 2 µg/mL
[4]; Dog blood, 2 hours, GN370 4 μg/mL
  Log10 CFU/mL of P. aeruginosa: 3.5 Log10 CFU/mL
[4]; Dog blood, 2 hours, GN370 20 μg/mL
  Log10 CFU/mL of P. aeruginosa: 1.6 Log10 CFU/mL
[4]; Dog blood, 2 hours, GN370 50 μg/mL
  Log10 CFU/mL of P. aeruginosa: 1.6 Log10 CFU/mL
[4]; Dog blood, 2 hours, GN370 100 μg/mL
  Log10 CFU/mL of P. aeruginosa: 1.6 Log10 CFU/mL
[4]; Dog blood, 2 hours, GN370 200 μg/mL
  Log10 CFU/mL of P. aeruginosa: 1.6 Log10 CFU/mL
[4]; Dog blood, 4 hours, GN370 4 μg/mL
  Log10 CFU/mL of P. aeruginosa: 4.7 Log10 CFU/mL
[4]; Dog blood, 4 hours, GN370 20 μg/mL
  Log10 CFU/mL of P. aeruginosa: 1.6 Log10 CFU/mL
[4]; Dog blood, 4 hours, GN370 50 μg/mL
  Log10 CFU/mL of P. aeruginosa: 1.6 Log10 CFU/mL
[4]; Dog blood, 4 hours, GN370 100 μg/mL
  Log10 CFU/mL of P. aeruginosa: 1.6 Log10 CFU/mL
[4]; Dog blood, 4 hours, GN370 200 μg/mL
  Log10 CFU/mL of P. aeruginosa: 1.6 Log10 CFU/mL
[4]; Dog blood, 24 hours, GN370 4 μg/mL
  Log10 CFU/mL of P. aeruginosa: 7.2 Log10 CFU/mL
[4]; Dog blood, 24 hours, GN370 20 μg/mL
  Log10 CFU/mL of P. aeruginosa: 1.6 Log10 CFU/mL
[4]; Dog blood, 24 hours, GN370 50 μg/mL
  Log10 CFU/mL of P. aeruginosa: 1.6 Log10 CFU/mL
[4]; Dog blood, 24 hours, GN370 100 μg/mL
  Log10 CFU/mL of P. aeruginosa: 1.6 Log10 CFU/mL
[4]; Dog blood, 24 hours, GN370 200 μg/mL
  Log10 CFU/mL of P. aeruginosa: 1.6 Log10 CFU/mL
[4]; Human blood, 2 hours, GN370 4 μg/mL
  Log10 CFU/mL of P. aeruginosa: 1.6 Log10 CFU/mL
[4]; Human blood, 2 hours, GN370 20 μg/mL
  Log10 CFU/mL of P. aeruginosa: 1.6 Log10 CFU/mL
[4]; Human blood, 2 hours, GN370 50 μg/mL
  Log10 CFU/mL of P. aeruginosa: 1.6 Log10 CFU/mL
[4]; Human blood, 2 hours, GN370 100 μg/mL
  Log10 CFU/mL of P. aeruginosa: 1.6 Log10 CFU/mL
[4]; Human blood, 2 hours, GN370 200 μg/mL
  Log10 CFU/mL of P. aeruginosa: 1.6 Log10 CFU/mL
[4]; Human blood, 4 hours, GN370 4 μg/mL
  Log10 CFU/mL of P. aeruginosa: 1.6 Log10 CFU/mL
[4]; Human blood, 4 hours, GN370 20 μg/mL
  Log10 CFU/mL of P. aeruginosa: 1.6 Log10 CFU/mL
[4]; Human blood, 4 hours, GN370 50 μg/mL
  Log10 CFU/mL of P. aeruginosa: 1.6 Log10 CFU/mL
[4]; Human blood, 4 hours, GN370 100 μg/mL
  Log10 CFU/mL of P. aeruginosa: 1.6 Log10 CFU/mL
[4]; Human blood, 4 hours, GN370 200 μg/mL
  Log10 CFU/mL of P. aeruginosa: 1.6 Log10 CFU/mL
[4]; Human blood, 24 hours, GN370 4 μg/mL
  Log10 CFU/mL of P. aeruginosa: 4.1 Log10 CFU/mL
[4]; Human blood, 24 hours, GN370 20 μg/mL
  Log10 CFU/mL of P. aeruginosa: 1.6 Log10 CFU/mL
[4]; Human blood, 24 hours, GN370 50 μg/mL
  Log10 CFU/mL of P. aeruginosa: 1.6 Log10 CFU/mL
[4]; Human blood, 24 hours, GN370 100 μg/mL
  Log10 CFU/mL of P. aeruginosa: 1.6 Log10 CFU/mL
[4]; Human blood, 24 hours, GN370 200 μg/mL
  Log10 CFU/mL of P. aeruginosa: 1.6 Log10 CFU/mL
[4]; Rabbit blood, 2 hours, GN370 4 μg/mL
  Log10 CFU/mL of P. aeruginosa: 1.6 Log10 CFU/mL
[4]; Rabbit blood, 2 hours, GN370 20 μg/mL
  Log10 CFU/mL of P. aeruginosa: 1.6 Log10 CFU/mL
[4]; Rabbit blood, 2 hours, GN370 50 μg/mL
  Log10 CFU/mL of P. aeruginosa: 1.6 Log10 CFU/mL
[4]; Rabbit blood, 2 hours, GN370 100 μg/mL
  Log10 CFU/mL of P. aeruginosa: 1.6 Log10 CFU/mL
[4]; Rabbit blood, 2 hours, GN370 200 μg/mL
  Log10 CFU/mL of P. aeruginosa: 1.6 Log10 CFU/mL
[4]; Rabbit blood, 4 hours, GN370 4 μg/mL
  Log10 CFU/mL of P. aeruginosa: 3.0 Log10 CFU/mL
[4]; Rabbit blood, 4 hours, GN370 20 μg/mL
  Log10 CFU/mL of P. aeruginosa: 1.6 Log10 CFU/mL
[4]; Rabbit blood, 4 hours, GN370 50 μg/mL
  Log10 CFU/mL of P. aeruginosa: 1.6 Log10 CFU/mL
[4]; Rabbit blood, 4 hours, GN370 100 μg/mL
  Log10 CFU/mL of P. aeruginosa: 1.6 Log10 CFU/mL
[4]; Rabbit blood, 4 hours, GN370 200 μg/mL
  Log10 CFU/mL of P. aeruginosa: 1.6 Log10 CFU/mL
[4]; Rabbit blood, 24 hours, GN370 4 μg/mL
  Log10 CFU/mL of P. aeruginosa: 4.9 Log10 CFU/mL
[4]; Rabbit blood, 24 hours, GN370 20 μg/mL
  Log10 CFU/mL of P. aeruginosa: 1.6 Log10 CFU/mL
[4]; Rabbit blood, 24 hours, GN370 50 μg/mL
  Log10 CFU/mL of P. aeruginosa: 1.6 Log10 CFU/mL
[4]; Rabbit blood, 24 hours, GN370 100 μg/mL
  Log10 CFU/mL of P. aeruginosa: 1.6 Log10 CFU/mL
[4]; Rabbit blood, 24 hours, GN370 200 μg/mL
  Log10 CFU/mL of P. aeruginosa: 1.6 Log10 CFU/mL
[4]; Rat blood, 2 hours, GN370 4 μg/mL
  Log10 CFU/mL of P. aeruginosa: 5.9 Log10 CFU/mL
[4]; Rat blood, 2 hours, GN370 20 μg/mL
  Log10 CFU/mL of P. aeruginosa: 6.1 Log10 CFU/mL
[4]; Rat blood, 2 hours, GN370 50 μg/mL
  Log10 CFU/mL of P. aeruginosa: 1.6 Log10 CFU/mL
[4]; Rat blood, 2 hours, GN370 100 μg/mL
  Log10 CFU/mL of P. aeruginosa: 1.6 Log10 CFU/mL
[4]; Rat blood, 2 hours, GN370 200 μg/mL
  Log10 CFU/mL of P. aeruginosa: 1.6 Log10 CFU/mL
[4]; Rat blood, 4 hours, GN370 4 μg/mL
  Log10 CFU/mL of P. aeruginosa: 7.0 Log10 CFU/mL
[4]; Rat blood, 4 hours, GN370 20 μg/mL
  Log10 CFU/mL of P. aeruginosa: 6.2 Log10 CFU/mL
[4]; Rat blood, 4 hours, GN370 50 μg/mL
  Log10 CFU/mL of P. aeruginosa: 3.7 Log10 CFU/mL
[4]; Rat blood, 4 hours, GN370 100 μg/mL
  Log10 CFU/mL of P. aeruginosa: 1.6 Log10 CFU/mL
[4]; Rat blood, 4 hours, GN370 200 μg/mL
  Log10 CFU/mL of P. aeruginosa: 1.6 Log10 CFU/mL
[4]; Rat blood, 24 hours, GN370 4 μg/mL
  Log10 CFU/mL of P. aeruginosa: 7.9 Log10 CFU/mL
[4]; Rat blood, 24 hours, GN370 20 μg/mL
  Log10 CFU/mL of P. aeruginosa: 7.8 Log10 CFU/mL
[4]; Rat blood, 24 hours, GN370 50 μg/mL
  Log10 CFU/mL of P. aeruginosa: 7.6 Log10 CFU/mL
[4]; Rat blood, 24 hours, GN370 100 μg/mL
  Log10 CFU/mL of P. aeruginosa: 3.6 Log10 CFU/mL
[4]; Rat blood, 24 hours, GN370 200 μg/mL
  Log10 CFU/mL of P. aeruginosa: 1.6 Log10 CFU/mL
[4]; all times, 20-200 μg/mL, strain PA453
  activity in dog, human, and rabbit blood (time-kill): high activity
[4]; majority of the times and concentrations tested, strain PA453
  activity in rat blood (time-kill): poor or no activity
